Assay results as given in article PMC4961446, “Dual Role of a Biosynthetic Enzyme, CysK, in Contact Dependent Growth Inhibition in Bacteria” (PLoS ONE, 2016).
Several values for one entry are separate records, joined by “and”; a condition that tells them apart may be missing. Equal values may be shown once.

Legend:
RelE (Escherichia coli) = RelE (Escherichia coli) (UniProt P0C077); settings: cited from earlier work
[1] = molecular target: CdiA-CT^536(H3193A) (Escherichia coli strain 536 (UPEC536)); assay: SPR; Biacore 3000, 30°C; CdiA-CT^(M) immobilized on CM5 chip (723 RU); 10 mM HEPES pH 7.5, 150 mM NaCl, 20 μl/min; analyte CdiI 5-40 nM (1:1 Langmuir model) or CysK 0.4-6.4 μM dimer
[2] = molecular target: CdiA-CT^536(H3193A) (Escherichia coli strain 536 (UPEC536)); assay: AUC; sedimentation velocity, 40,000 rpm, 15°C, 20 mM HEPES pH 7.5, 250 mM NaCl; 10, 20 and 30 μM; c(s) model in SEDFIT; complexes mixed and incubated at 4°C for 1 h
[3] = molecular target: CdiA-CT^536(H3193A) (Escherichia coli strain 536 (UPEC536)); assay: ITC; 30°C, 20 mM HEPES pH 7.5, 150 mM NaCl; CdiA-CT^(M) or its preformed complex in the sample cell, CdiI or CysK (dimer concentration) in the syringe; one-site model for CdiA-CT^(M)/CdiI, two binding site model where CysK is involved; apparent enthalpy
[4] = molecular target: CdiA-CT^(M)/CysK complex (heterotetramer) (Escherichia coli strain 536 (UPEC536) | E. coli K12) (UniProt P0ABK5); assay: as above
[5] = molecular target: CdiA-CT^(M)/CysK complex (heterotetramer) (Escherichia coli strain 536 (UPEC536) | E. coli K12) (UniProt P0ABK5); assay: SPR; Biacore 3000, 30°C; CdiA-CT^(M) immobilized on a separate CM5 chip (760 RU), first 0.6 μM CysK (dimer) passed over it to form the CdiA-CT^(M)/CysK complex, then CdiI injected at 2.5-40 nM; local fitting, separate ka/kd model
[6] = molecular target: SpoIISB (Bacillus subtilis) (UniProt O34800); settings: cited from earlier work
Chain of SpoIISB (Bacillus subtilis) (O34800 whole entry): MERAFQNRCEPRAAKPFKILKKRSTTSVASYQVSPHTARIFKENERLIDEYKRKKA

[7] = molecular target: the molecule itself; assay: SEC; analytical SEC, Superdex 200 Increase 10/300 GL, 20 mM HEPES pH 7.5, 250 mM NaCl, ~15°C; samples 10, 20 and 30 μM; for complexes purified proteins mixed in varying molar ratios and incubated at 4°C for 1 h; fractions analysed by SDS-PAGE
[8] = molecular target: the molecule itself; assay: AUC; sedimentation velocity, 40,000 rpm, 15°C, 20 mM HEPES pH 7.5, 250 mM NaCl; 10, 20 and 30 μM; c(s) model in SEDFIT; complexes mixed and incubated at 4°C for 1 h
[9] = molecular target: CdiA-CT^(M)/CdiI complex (heterodimer) (Escherichia coli strain 536 (UPEC536)); assay: as above; settings: scale: CysK chain per CdiA-CT^(M)/CdiI heterodimer
Chain of CdiA-CT^(M)/CdiI complex (heterodimer) (Escherichia coli strain 536 (UPEC536)) (Q0T964 whole entry, one chain of several): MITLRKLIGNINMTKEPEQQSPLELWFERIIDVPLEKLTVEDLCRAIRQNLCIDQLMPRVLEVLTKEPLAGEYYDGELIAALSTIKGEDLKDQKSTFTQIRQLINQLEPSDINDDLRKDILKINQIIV

[10] = molecular target: CdiA-CT^(M)/CdiI complex (heterodimer) (Escherichia coli strain 536 (UPEC536)); assay: ITC; 30°C, 20 mM HEPES pH 7.5, 150 mM NaCl; CdiA-CT^(M) or its preformed complex in the sample cell, CdiI or CysK (dimer concentration) in the syringe; one-site model for CdiA-CT^(M)/CdiI, two binding site model where CysK is involved; apparent enthalpy
CysK = molecular target: T1, CysK (Escherichia coli, UniProt P0ABK5); assay: ITC
T1 chain: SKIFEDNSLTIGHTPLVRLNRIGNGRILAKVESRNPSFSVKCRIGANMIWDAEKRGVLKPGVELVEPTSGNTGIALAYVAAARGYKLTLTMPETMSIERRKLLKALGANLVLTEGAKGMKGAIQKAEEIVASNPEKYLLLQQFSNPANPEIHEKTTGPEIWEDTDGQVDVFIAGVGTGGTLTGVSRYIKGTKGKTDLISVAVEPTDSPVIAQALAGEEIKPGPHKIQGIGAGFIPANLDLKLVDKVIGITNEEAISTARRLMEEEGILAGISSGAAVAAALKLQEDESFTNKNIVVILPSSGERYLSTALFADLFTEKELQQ

Chain of RelE (Escherichia coli) (P0C077 whole entry): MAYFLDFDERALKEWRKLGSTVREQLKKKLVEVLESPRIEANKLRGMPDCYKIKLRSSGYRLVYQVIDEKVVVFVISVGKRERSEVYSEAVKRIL

## RelB (from UniProt P0C079)
RelE (Escherichia coli)
  Kd: 0.33 nM

## CdiI (natural protein)
[1]
  Kd: 12.8 nM
  koff: 0.065 s⁻¹
  kon: 5.1e+06 M⁻¹ s⁻¹
[2]
  stoichiometry N (CdiI per CdiA-CT^(M) (1:1)): 1
[3]
  Kd: 26.4 nM
  dH: -29 kcal/mol
  stoichiometry N: 0.993
[4]
  KD1, first site: 1.3 nM
  KD2, second site: 1.1 nM
  dH, first site: -26.7 kcal/mol
  dH, second site: -24.2 kcal/mol
  stoichiometry N: 1.89
[5]
  Kd: 0.3 nM
  koff: 0.0005 s⁻¹
  kon: 1.5e+06 M⁻¹ s⁻¹

## SpoIISA (from UniProt O34853)
[6]
  Kd: 0.46 nM

B1: CysK (O-acetylserine sulfyhydrylase) (enzyme, E. coli K12, UniProt P0ABK5 1-323, looked up)
chain: MSKIFEDNSLTIGHTPLVRLNRIGNGRILAKVESRNPSFSVKCRIGANMIWDAEKRGVLKPGVELVEPTSGNTGIALAYVAAARGYKLTLTMPETMSIERRKLLKALGANLVLTEGAKGMKGAIQKAEEIVASNPEKYLLLQQFSNPANPEIHEKTTGPEIWEDTDGQVDVFIAGVGTGGTLTGVSRYIKGTKGKTDLISVAVEPTDSPVIAQALAGEEIKPGPHKIQGIGAGFIPANLDLKLVDKVIGITNEEAISTARRLMEEEGILAGISSGAAVAAALKLQEDESFTNKNIVVILPSSGERYLSTALFADLFTEKELQQ
notes: CysK (O-acetylserine sulfhydrylase), amplified from E. coli K12 genomic DNA, in pNIC28-Bsa4; Cloned between NcoI/XhoI of pNIC28-Bsa4; also called CysK dimer; source: E. coli BL21(DE3), purified (Co-NTA, gel filtration)
[7]
  stoichiometry N: 2
[1]
  Kd: 32 nM
  koff: 0.00014 s⁻¹
  kon: 6200 M⁻¹ s⁻¹
[8]
  stoichiometry N: 2
[2]
  stoichiometry N (CysK chain per CdiA-CT^(M) chain (2:2)): 1
[9]
  stoichiometry N: 1
[3]
  KD1, first site: 79.3 nM
  KD2, second site: 89.2 nM
  dH, first site: -5.62 kcal/mol
  dH, second site: -20.2 kcal/mol
  stoichiometry N: 0.494
[10]
  KD1, first site: 12 nM
  KD2, second site: 13.4 nM
  dH, first site: -11 kcal/mol
  dH, second site: -26.7 kcal/mol
  stoichiometry N: 0.512

B2: CdiA-CT CT (protein)
chain: VENNALSLVARGCAVAAPCRTKVAEQLLEIGAKAGMAGLAGAAVKDMADRMTSDELEHLITLQMMGNDEITTKYLSSLHDKYGSGAASNPNIGKDLTDAEKVELGGSGSGTGTPPPSENDPKQQNEKTVDKLNQKQESAIKKIDNTIKNALKDHDIIGTLKDMDGKPVPKENGGYWDHMQEMQNTLRGLRNHADTLKNVNNPEAQAAYGRATDAINKIESALKGYGI
CysK
  Kd: 79.3 nM and 89.2 nM
